# Substitutions are numbered along the chain they refer to. Names may count otherwise.
# B1: ^C98RhuA-HisTag (enzyme)
# chain: MQNITQSWFVQGMIKATTDAWLKGWDERNGGNLTLRLDDADIAPYHDNFHQQPRYIPLSQPMPLLANTPFIVTGSGKFFRNVQLDPAANLGIVKVDSCGAGYHILWGLTNEAVPTSELPAHFLSHSERIKATNGKDRVIMHCHATNLIALTYVLENDTAVFTRQLWEGSTECLVVFPDGVGILPWMVPGTDAIGQATAQEMQKHSLVLWPFHGVFGSGPTLDETFGLIDTAEKSAQVLVKVYSMGGMKQTISREELIALGKRFGVTPLASALALGSGSGHHHHHH
# notes: also called RhuA-C98-HisTag; C98-His tagged RhuA mutant
# B2: ^C98RhuA-Pd4 (enzyme)
# chain: MQNITQSWFVQGMIKATTDAWLKGWDERNGGNLTLRLDDADIAPYHDNFHQQPRYIPLSQPMPLLANTPFIVTGSGKFFRNVQLDPAANLGIVKVDSCGAGYHILWGLTNEAVPTSELPAHFLSHSERIKATNGKDRVIMHCHATNLIALTYVLENDTAVFTRQLWEGSTECLVVFPDGVGILPWMVPGTDAIGQATAQEMQKHSLVLWPFHGVFGSGPTLDETFGLIDTAEKSAQVLVKVYSMGGMKQTISREELIALGKRFGVTPLASALALGSGSGTSNAVHPTLRHL
# notes: also called C98-RhuA-Pd4 mutant
# B3: ^C98RhuA-ACP (enzyme)
# chain: MQNITQSWFVQGMIKATTDAWLKGWDERNGGNLTLRLDDADIAPYHDNFHQQPRYIPLSQPMPLLANTPFIVTGSGKFFRNVQLDPAANLGIVKVDSCGAGYHILWGLTNEAVPTSELPAHFLSHSERIKATNGKDRVIMHCHATNLIALTYVLENDTAVFTRQLWEGSTECLVVFPDGVGILPWMVPGTDAIGQATAQEMQKHSLVLWPFHGVFGSGPTLDETFGLIDTAEKSAQVLVKVYSMGGMKQTISREELIALGKRFGVTPLASALALGSGSGSTIEERVKKIIGEQLGVKQEEVTNNASFVEDLGADSLDTVELVMALEEEFDTEIPDEEAEKITTVQAAIDYINGHQA
# B4: ^C98RhuA (L-rhamnulose-1-phosphate aldolase variant D98C/C126S/E192A) (enzyme)
# chain: MQNITQSWFVQGMIKATTDAWLKGWDERNGGNLTLRLDDADIAPYHDNFHQQPRYIPLSQPMPLLANTPFIVTGSGKFFRNVQLDPAANLGIVKVDSCGAGYHILWGLTNEAVPTSELPAHFLSHSERIKATNGKDRVIMHCHATNLIALTYVLENDTAVFTRQLWEGSTECLVVFPDGVGILPWMVPGTDAIGQATAQEMQKHSLVLWPFHGVFGSGPTLDETFGLIDTAEKSAQVLVKVYSMGGMKQTISREELIALGKRFGVTPLASALAL
# notes: C4 symmetric homotetramer (4 x 274 residues); Tetramers link to each other through single C98-C98 disulfide bonds at the corners; also called RhuA-C98; Rhu-C98
# B5: ^C266RhuA (enzyme)
# chain: B4 chain with C98D, T266C
# notes: Surface cysteine lies on the sides of the tetramer; also called RhuA-C266
# B6: ^C133RhuA (enzyme)
# chain: B4 chain with C98D, N133C
# notes: Surface cysteine lies on the sides of the tetramer; also called RhuA-C133
# Tests used:
# self-assembly, TEM = target: the molecule itself; assay: self-assembly, TEM
# [1] = target: the molecule itself; assay: disulfide-mediated self-assembly
# [2] = target: the molecule itself; assay: oxidative self-assembly conditions; TEM
Protein,"binding result (self-assembly, TEM)",binding result [2],also measured
B1,binds,–,–
B2,binds,–,–
B3,binds,–,–
B4,–,–,binding result [1]: binds
B5,–,binds,–
B6,–,binds,–

# — patent US20180354988A1 (University of California, published 2018)
